From publication PMC3154745 (Chembiochem : a European journal of chemical biology, 2011)
Like-named read-outs stand apart in the source and are kept apart here. Primed or numbered codes have the meaning given here. No end group written: not given here. fluorescein″ = fluorescein label at the N-terminus of the peptide; fluorescein = fluorescein group at the N-terminus

B1: HP1a-CSDΔ204 (residues 131-203) (domain or fragment, D. melanogaster, UniProt P05205 131-203, looked up)
chain: EQDTIPVSGSTGFDRGLEAEKILGASDNNGRLTFLIQFKGVDQAEMVPSSVANEKIPRMVIHFYEERLSWYSD
B2: HP1a-CSD (residues 131-206), wild type (domain or fragment, D. melanogaster, UniProt P05205 131-206, looked up)
chain: EQDTIPVSGSTGFDRGLEAEKILGASDNNGRLTFLIQFKGVDQAEMVPSSVANEKIPRMVIHFYEERLSWYSDNED
B3: HP1a-CSD E195Q (residues 131-206) (domain or fragment, D. melanogaster, UniProt P05205 131-206, looked up)
chain: EQDTIPVSGSTGFDRGLEAEKILGASDNNGRLTFLIQFKGVDQAEMVPSSVANEKIPRMVIHFYQERLSWYSDNED
B4: HP1a-CSD W200A (residues 131-206) (domain or fragment, D. melanogaster, UniProt P05205 131-206, looked up)
chain: EQDTIPVSGSTGFDRGLEAEKILGASDNNGRLTFLIQFKGVDQAEMVPSSVANEKIPRMVIHFYEERLSAYSDNED
B5: HP1a-CSD S199E S202E double mutant (residues 131-206) (domain or fragment, D. melanogaster, UniProt P05205 131-206, looked up)
chain: EQDTIPVSGSTGFDRGLEAEKILGASDNNGRLTFLIQFKGVDQAEMVPSSVANEKIPRMVIHFYEERLEWYEDNED

How the values were obtained:
[1] = target: B2; test: NMR titration
AUC [2] = target: the molecule itself; test: AUC
AUC [3] = target: the molecule itself; test: AUC; remark: listed apart in the source
[4] = target: B2; test: fluorescence polarisation
[5] = target: B4; test: fluorescence polarisation
[6] = target: B1; test: fluorescence polarisation
[7] = target: B3; test: fluorescence polarisation
[8] = target: T1, HP1a-CSD A174E (residues 131-206) (D. melanogaster, UniProt P05205 131-206, A174E); test: fluorescence polarisation
T1 sequence (looked up): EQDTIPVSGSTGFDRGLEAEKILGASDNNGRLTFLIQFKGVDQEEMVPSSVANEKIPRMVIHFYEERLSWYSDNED

[9] = target: B5; test: fluorescence polarisation
[10] = target: T2, HP1a-CSD I191E (residues 131-206) (D. melanogaster, UniProt P05205 131-206, I191E); test: fluorescence polarisation
T2 sequence (looked up): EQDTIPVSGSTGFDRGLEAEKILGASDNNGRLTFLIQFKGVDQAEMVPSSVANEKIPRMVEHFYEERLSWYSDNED

AUC [11] = target: the molecule itself; test: AUC; remark: listed apart in the source
SEC = target: the molecule itself; test: SEC
[12] = target: B2; test: fluorescence polarisation; remark: listed apart in the source

TSRGSGDPRVKVFRGSSSGDY [PIWI peptide as used in NMR]
binding result [1]: binds

B1
Kd (AUC [2]): 2 ± 0.2 µM

B2
Kd (AUC [3]): 1.6 ± 0.4 µM | Kd (AUC [2]): 3 ± 0.2 µM

{fluorescein″}-QNISPRKLCVKINRRPYNKWLR [HP2 peptide wild type (LCVKI), N-terminal fluorescein]
Kd [4]: 0.14 ± 0.07 µM

fluorescein-QNISPRKLSVKINRRPYNKWLR [HP2 peptide Cys to Ser mutant (LSVKI), N-terminal fluorescein]
Kd [5]: > 500 µM | Kd [6]: 4.9 ± 0.6 µM | Kd [7]: 3.7 ± 0.4 µM | Kd [8]: 1.26 ± 0.12 µM | Kd [9]: 0.044 ± 0.007 µM | Kd [4]: 0.3 ± 0.02 µM | Kd [10]: > 400 µM

B3
Kd (AUC [2]): 4.3 ± 0.4 µM

B4
Kd (AUC [11]): 5.8 ± 0.6 µM | stoichiometry N (SEC): 2

B5
Kd (AUC [2]): 19 ± 1 µM

{fluorescein″}-PATTSPLVVLSNQLPLNSVAASY [AF10 peptide, N-terminal fluorescein]
binding result [12]: binds

fluorescein-TSRGSGDPRVKVFRGSSSGDY [PIWI peptide, N-terminal fluorescein]
Kd [5]: > 2000 µM | Kd [6]: 60 ± 2 µM | Kd [7]: 97 ± 12 µM | Kd [8]: 101 ± 6 µM | Kd [9]: 1.7 ± 0.1 µM | Kd [4]: 20 ± 0.5 µM | Kd [10]: > 2000 µM

{fluorescein″}-SEGRRLYPLLPRISPQTALSIVANDLAESD [CG15356 peptide, N-terminal fluorescein]
binding result [12]: binds
